Assay results from patent US20230235090A1 (HARBOUR BIOMED US, published 2023).
Where a chain is given by its changes, count along the chain named. Names may count otherwise. One block for each binder: values may come before it.

Experiments:
cynomolgus monkey 4-1BB [1] = molecular target: T1, cynomolgus monkey 4-1BB (cynomolgus monkey); assay: FACS, CHO-K1/cyno-4-1BB cells [B]
T1 construct: whole, on cells; also called CHO-K1-cyno 4-1BB; CHO-K1/cyno4-1BB
Procedure: (§1) Antibody binding experiments at the cellular level were conducted using a CHO-K1 cell strain overexpressing human 4-1BB (CHO-K1/h4-1BB, Gensript, #M00538), a CHO-K1 cell strain expressing cynomolgus monkey 4-1BB (CHO-K1/cyno4-1BB, Genscript, #M00569) and a CHO-K1 cell strain overexpressing mouse 4-1BB (CHO-K1/m4-1BB, Genscript, #M00568). Briefly, the CHO-K1/h4-1BB cells, CHO-K1/cyno 4-1BB cells and CHO-K1/m 4-1BB cells were digested and resuspended with PBS containing 2% FBS. The cell density was adjusted to 1×10⁶ cells/mL. […] The cells were incubated at 4° C. for 2 h away from light. Thereafter, the cells in each well were rinsed twice with 100 μL of a pre-cooled FACS buffer, PBS containing 2% FBS, and centrifuged at 500 g at 4° C. for 5 min, and then the supernatant was discarded. […] The plate was incubated away from light at 4° C. for 1 h. The cells in each well were rinsed twice with 100 μL of pre-cooled FACS buffer, and centrifuged at 500 g at 4° C. for 5 min, and then the supernatant was discarded. Finally, the cells in each well were resuspended in 200 μL of pre-cooled FACS buffer, and the fluorescence signal values were read using an ACEA Novocyte3000 flow cytometer.

human 4-1BB [2] = molecular target: T2, human 4-1BB (human, UniProt Q07011 24-255); assay: FACS, CHO-K1/h4-1BB cells [L]
T2 construct: whole, on cells; also called CD137; TNFRSF9
T2 sequence (Q07011 24-255): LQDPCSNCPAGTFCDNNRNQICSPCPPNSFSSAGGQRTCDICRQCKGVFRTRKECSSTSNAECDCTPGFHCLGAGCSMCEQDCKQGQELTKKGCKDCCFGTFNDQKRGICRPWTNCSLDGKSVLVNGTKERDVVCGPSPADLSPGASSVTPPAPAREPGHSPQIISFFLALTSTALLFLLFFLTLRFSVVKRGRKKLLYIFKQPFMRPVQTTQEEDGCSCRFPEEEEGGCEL
Procedure: (§2) Antibody binding experiments at the cellular level were conducted using a CHO-K1 cell strain overexpressing human 4-1BB (CHO-K1/hu 4-1BB, Genscript, #M00538) and a CHO-K1 cell strain overexpressing cynomolgus monkey 4-1BB (CHO-K1/cyno 4-1BB, Genscript, #M00569). Briefly, the CHO-K1-hu 4-1BB and CHO-K1/cyno 4-1BB cells were digested, resuspended in F12K complete medium, and washed once with PBS. The cell density was adjusted to 1×10⁶ cells/mL with PBS. […] The cells were incubated at 4° C. for 1 h away from light. Thereafter, the cells in each well were rinsed twice with 100 μL of pre-cooled PBS, and centrifuged at 500 g at 4° C. for 5 min, and then the supernatant was discarded. […] The plate was incubated away from light at 4° C. for 30 min. The cells in each well were rinsed twice with 100 μL of pre-cooled PBS, and centrifuged at 500 g at 4° C. for 5 min, and then the supernatant was discarded. Finally, the cells in each well were resuspended in 200 μL of pre-cooled PBS, and the fluorescence signal values were read using a BD FACS CANTOII or an ACEA NovoCyte flow cytometer.

cynomolgus monkey 4-1BB [3] = molecular target: T1, cynomolgus monkey 4-1BB; assay: FACS, CHO-K1/cyno 4-1BB cells [G]
Procedure: (§3) Antibody binding experiments at the cellular level were conducted using a CHO-K1 cell strain overexpressing human 4-1BB (CHO-K1-hu 4-1BB, Genescript) and a CHO-K1 cell strain overexpressing cynomolgus monkey 4-1BB (CHO-K1-cyno 4-1BB, Genescript). Briefly, the CHO-K1-hu 4-1BB and CHO-K1-cyno 4-1BB cells were digested and resuspended in DMEM complete medium, and the cell density was adjusted to 1×10⁶ cells/mL. […] The cells were incubated at 4° C. for 1 h away from light. Thereafter, the cells in each well were rinsed twice with 100 μL of pre-cooled PBS, and centrifuged at 500 g at 4° C. for 5 min, and then the supernatant was discarded. […] The plate was incubated away from light at 4° C. for 30 min. The cells in each well were rinsed twice with 100 μL of pre-cooled PBS, and centrifuged at 500 g at 4° C. for 5 min, and then the supernatant was discarded. Finally, the cells in each well were resuspended in 200 μL of pre-cooled PBS, and the fluorescence signal values were read using a BD FACS CANTOII.

human 4-1BB [4] = molecular target: T2, human 4-1BB; assay: FACS, CHO-K1/hu 4-1BB cells [H]
Procedure: as §3

human 4-1BB [5] = molecular target: T2, human 4-1BB; assay: FACS, CHO-K1/h4-1BB cells [A]
Procedure: as §1

human 4-1BB [6] = molecular target: T2, human 4-1BB; assay: FACS, CHO-K1/hu 4-1BB cells [G]
Procedure: (§4) This example is intended to investigate the in vitro binding activity of anti-human 4-1BB HCAb and H2L2 monoclonal antibodies to human and cynomolgus monkey 4-1BB. Antibody binding experiments at the cellular level were conducted using a CHO-K1 cell strain overexpressing human 4-1BB (CHO-K1-hu 4-1BB, Genescript) and a CHO-K1 cell strain overexpressing cynomolgus monkey 4-1BB (CHO-K1-cyno 4-1BB, Genescript). Briefly, the CHO-K1-hu 4-1BB and CHO-K1-cyno 4-1BB cells were digested and resuspended in DMEM complete medium, and the cell density was adjusted to 1×10⁶ cells/mL. […] The cells were incubated at 4° C. for 1 h away from light. Thereafter, the cells in each well were rinsed twice with 100 μL of pre-cooled PBS, and centrifuged at 500 g at 4° C. for 5 min, and then the supernatant was discarded. […] The plate was incubated away from light at 4° C. for 30 min. The cells in each well were rinsed twice with 100 μL of pre-cooled PBS, and centrifuged at 500 g at 4° C. for 5 min, and then the supernatant was discarded. Finally, the cells in each well were resuspended in 200 μL of pre-cooled PBS, and the fluorescence signal values were read using a BD FACS CANTOII.

cynomolgus monkey 4-1BB [7] = molecular target: T1, cynomolgus monkey 4-1BB; assay: FACS, CHO-K1/cyno 4-1BB cells [F]
Procedure: as §4

human 4-1BB [8] = molecular target: T2, human 4-1BB; assay: FACS on CHO-K1-hu 4-1BB cells
cynomolgus monkey 4-1BB [9] = molecular target: T1, cynomolgus monkey 4-1BB; assay: FACS, CHO-K1/cyno 4-1BB cells [A]
Procedure: as §4

human 4-1BB [10] = molecular target: T2, human 4-1BB; assay: FACS, CHO-K1/hu 4-1BB cells [A]
Procedure: as §4

human 4-1BB [11] = molecular target: T2, human 4-1BB; assay: FACS, CHO-K1/h4-1BB cells [K]
Procedure: as §2

human B7-H4 [12] = molecular target: T3, human B7-H4 (human, UniProt Q7Z7D3 25-282); assay: FACS, MDA-MB-468 cells [A]
T3 construct: whole, on cells; also called VTCN1; SK-BR-3 cell line highly expressing B7-H4
T3 sequence (looked up): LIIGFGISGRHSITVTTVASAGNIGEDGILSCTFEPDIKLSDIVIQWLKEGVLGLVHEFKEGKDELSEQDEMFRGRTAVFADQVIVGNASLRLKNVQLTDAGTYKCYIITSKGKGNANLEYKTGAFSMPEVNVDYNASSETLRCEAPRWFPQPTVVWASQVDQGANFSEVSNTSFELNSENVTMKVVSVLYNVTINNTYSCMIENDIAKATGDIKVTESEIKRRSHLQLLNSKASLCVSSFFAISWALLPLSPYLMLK

human B7-H4 [13] = molecular target: T3, human B7-H4; assay: FACS, SKBR3 cells [A]
cynomolgus monkey B7-H4 = molecular target: T4, cynomolgus monkey B7-H4 (cynomolgus monkey, UniProt A0A2K5U6P5 25-282); assay: FACS, CHO-K1/cyno B7H4 cells [B]
T4 construct: whole, on cells; also called CHO-K1/cyno B7-H4; CHO-K1/cynoB7H4
T4 sequence: T3 sequence (looked up) with L53I, F242L, S252A
Procedure: (§5) This example is intended to investigate the in vitro binding activity of anti-human B7-H4 H2L2 monoclonal antibody to human/cynomolgus monkey/mouse B7-H4. Antibody binding experiments at the cellular level were conducted using a CHO-K1 cell strain overexpressing cynomolgus monkey B7-H4 (CHO-K1/cyno B7-H4, prepared in-house by Harbour Biomed), a CHO-K1 cell strain overexpressing mouse B7-H4 (CHO-K1/m B7-H4, prepared in-house by Harbour Biomed) and an SK-BR-3 cell line highly expressing human B7-H4 (ATCC® HTB-30). Briefly, the CHO-K1/cyno B7-H4 cells, CHO-K1/m B7-H4 cells or SK-BR-3 cells were digested and resuspended with PBS containing 2% BSA. The cell density was adjusted to 1×10⁶ cells/mL. […] The cells were incubated at 4° C. for 2 h away from light. Thereafter, the cells in each well were rinsed twice with 100 μL of pre-cooled PBS containing 2% BSA, and centrifuged at 500 g at 4° C. for 5 min, and then the supernatant was discarded. […] The plate was incubated away from light at 4° C. for 1 h. The cells in each well were rinsed twice with 100 μL of pre-cooled PBS containing 2% BSA, and centrifuged at 500 g at 4° C. for 5 min, and then the supernatant was discarded. Finally, the cells in each well were resuspended in 200 μL of pre-cooled PBS containing 2% BSA, and the fluorescence signal values were read using an ACEA Novocyte3000 flow cytometer.

human B7-H4 [14] = molecular target: T3, human B7-H4; assay: FACS, SK-BR-3 cells [A]
Procedure: as §5

mouse B7-H4 = molecular target: T5, mouse B7-H4 (mouse, UniProt Q7TSP5 25-257); assay: FACS, CHO-K1/m B7H4 cells [C]
T5 construct: whole, on cells; also called CHO-K1/m B7-H4; CHO-K1/mB7-H4
T5 sequence (looked up): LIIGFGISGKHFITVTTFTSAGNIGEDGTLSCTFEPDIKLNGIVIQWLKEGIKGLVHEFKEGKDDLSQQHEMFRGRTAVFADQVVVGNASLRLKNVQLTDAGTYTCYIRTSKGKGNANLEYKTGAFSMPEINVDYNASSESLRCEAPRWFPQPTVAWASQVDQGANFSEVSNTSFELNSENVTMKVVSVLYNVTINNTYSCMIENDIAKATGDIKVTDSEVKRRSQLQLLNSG
Procedure: as §5

cynomolgus monkey 4-1BB [15] = molecular target: T1, cynomolgus monkey 4-1BB; assay: FACS, CHO-K1/cyno 4-1BB cells [H]
Procedure: as §3

human 4-1BB [16] = molecular target: T2, human 4-1BB; assay: FACS, CHO-K1/hu 4-1BB cells [I]
Procedure: as §4

cynomolgus monkey 4-1BB [17] = molecular target: T1, cynomolgus monkey 4-1BB; assay: FACS, CHO-K1/cyno 4-1BB cells [E]
Procedure: as §4

cynomolgus monkey 4-1BB [18] = molecular target: T1, cynomolgus monkey 4-1BB; assay: FACS, CHO-K1/cyno 4-1BB cells [B]
Procedure: as §4

cynomolgus monkey 4-1BB [19] = molecular target: T1, cynomolgus monkey 4-1BB; assay: FACS, CHO-K1/cyno 4-1BB cells [C]
Procedure: as §4

cynomolgus monkey 4-1BB [20] = molecular target: T1, cynomolgus monkey 4-1BB; assay: FACS, CHO-K1/cyno 4-1BB cells [D]
Procedure: as §4

B1: PR004469 (antibody, human IgG1, V domains shown)
VH: EVQLLESGGGLVQPGGSLRLSCAASGFTFSNYAMSWFRQPPETGLKWVSSIDASGGDTYYADSVKGRFTISRDNSKNTLYLQMNSLRAEDTAVYYCAKEGSHGTDDSHYDVDVWGQGTTVTVSS
notes: anti-4-1BB HCAb, human IgG1 Fc; also called PTM variant of PR001838 (G53A)
EC50 (cynomolgus monkey 4-1BB [1]): 25.4 nM
EC50 (human 4-1BB [2]): 17 nM
EC50 (cynomolgus monkey 4-1BB [3]): 0.568 nM
EC50 (human 4-1BB [4]): 1.29 nM
Maximum MFI (human 4-1BB [4]): 109000 MFI
EC50 (human 4-1BB [5]): 18 nM

B2: PR001842 (antibody, human IgG1, V domains shown)
VH: EVQLLESGGGLVQPGGSLRLSCAASGFTFSSYAMSWGRQAPGKGLEWVSAISGSGGSTYYADSVKGRFTISRDNSKNTLYLHMNSLRAEDTAVYYCAKEKVATTGDYYYDMDVWGQGTTVTVSS
notes: anti-4-1BB HCAb, human IgG1 Fc
EC50 (human 4-1BB [6]): 0.537 nM
EC50 (cynomolgus monkey 4-1BB [7]): 2.29 nM
Maximum MFI (cynomolgus monkey 4-1BB [7]): 9660 MFI

B4: PR001760 (antibody, human IgG1, V domains shown)
VH: EVQLVESGGGVVQPGGSLRLSCAASGFTFSNYAMTWVRQAPEKGLEWVSSISGSGVSTYYADSVKGRFTISRDNSKNTLYLQMTRLTAEDTAVYFCAKEGSSETDDHYYNVDVWGQGTTVTVSS
notes: as for B2
EC50 (cynomolgus monkey 4-1BB [9]): 0.443 nM
Maximum MFI (cynomolgus monkey 4-1BB [9]): 17400 MFI
EC50 (human 4-1BB [10]): 0.198 nM
Maximum MFI (human 4-1BB [10]): 1740 MFI
EC50 (human 4-1BB [11]): 3.76 nM
Maximum MFI (human 4-1BB [11]): 83600 MFI

B6: PR000448 (antibody, human IgG4 S228P, kappa, V domains shown)
VH: QVQLQQWGAGLLKPSETLSLTCAVYGGSFSGYYWSWIRQPPGKGLEWIGEIQHSGSTDSNPSLKGRVTFSVDTSKNQFSLKLNSVTAADTAVYYCARLTGPFDYWGQGTLVTVSS
VL: EIVMTQSPATLSVSPGERATLSCRASQSISSILAWYQQKPGQAPRLLIYGASTRATGIPARFSGSGSGTEFTLTISSLQSEDFAVYYCQQYYNWPLTFGGGTKVEIKR
notes: anti-4-1BB H2L2 recombinant fully human IgG antibody, human IgG1 / kappa
EC50 (cynomolgus monkey 4-1BB [15]): 1.06 nM
EC50 (human 4-1BB [16]): 0.947 nM

B7: Utomilumab analog (PR000483) (antibody, human IgG2, lambda, V domains shown)
VH: EVQLVQSGAEVKKPGESLRISCKGSGYSFSTYWISWVRQMPGKGLEWMGKIYPGDSYTNYSPSFQGQVTISADKSISTAYLQWSSLKASDTAMYYCARGYGIFDYWGQGTLVTVSS
VL: SYELTQPPSVSVSPGQTASITCSGDNIGDQYAHWYQQKPGQSPVLVIYQDKNRPSGIPERFSGSNSGNTATLTISGTQAMDEADYYCATYTGFGSLAVFGGGTKLTVLG
notes: anti-4-1BB control antibody; also called Tab
EC50 (cynomolgus monkey 4-1BB [17]): 0.485 nM
Maximum MFI (cynomolgus monkey 4-1BB [17]): 11000 MFI
EC50 (cynomolgus monkey 4-1BB [7]): 0.485 nM
Maximum MFI (cynomolgus monkey 4-1BB [7]): 11000 MFI
EC50 (cynomolgus monkey 4-1BB [18]): 3.46 nM
Maximum MFI (cynomolgus monkey 4-1BB [18]): 55500 MFI
EC50 (cynomolgus monkey 4-1BB [9]): 0.485 nM
Maximum MFI (cynomolgus monkey 4-1BB [9]): 11000 MFI
EC50 (cynomolgus monkey 4-1BB [19]): 3.46 nM
Maximum MFI (cynomolgus monkey 4-1BB [19]): 55500 MFI
EC50 (cynomolgus monkey 4-1BB [15]): 0.929 nM
EC50 (cynomolgus monkey 4-1BB [20]): 3.46 nM
Maximum MFI (cynomolgus monkey 4-1BB [20]): 55500 MFI

Other lines, results leading:

binding result (human 4-1BB [8]): binds
B3: PR007381 (antibody, human IgG1, V domains shown)
VH: B1 VH with F37V, P40A, E42G, T43K, K46E
notes: anti-4-1BB HCAb, human IgG1 Fc; also called germline variant of PR004469

EC50 (read off the curve) (human B7-H4 [12]): ~6 nM
EC50 (read off the curve) (human B7-H4 [13]): ~4 nM
EC50 (cynomolgus monkey B7-H4): 2.1 nM
Maximum MFI (cynomolgus monkey B7-H4): 1.99e+06 MFI
EC50 (human B7-H4 [14]): 1.2 nM
Maximum MFI (human B7-H4 [14]): 266000 MFI
EC50 (mouse B7-H4): 1.73 nM
Maximum MFI (mouse B7-H4): 1.75e+06 MFI
B5: control antibody 1 (PR000157) (antibody, V domains shown)
VH: EVQLVQSGAEVKKPGASVKVSCKASGYTFTSYWIGWVRQAPGQGLEWIGDIYPGGGYTNYNEKFKGRVTITRDTSTSTAYLELSSLRSEDTAVYYCARLAGSSYRGAMDSWGQGTLVTVSS
VL: DIQMTQSPSSLSASVGDRVTITCKASQGFNKYVAWYQQKPGKAPKLLIYYTSTLQPGVPSRFSGSGSGRDYTLTISSLQPEDFATYYCLQYGDLLYAFGQGTKVEIKR
notes: also called Positive control 1; 1D11.v1.9varC2
